Experimental data from patent publication US20060253917A1 (published 2006).

T1: OsCYCOS2 aa 50-233 (Oryza sativa, UniProt A2YH60 50-233)
T1 construct: bait, Gal4 DBD fusion; also called PN20257; O. sativa Cyclin OsCYCOS2
T1 chain: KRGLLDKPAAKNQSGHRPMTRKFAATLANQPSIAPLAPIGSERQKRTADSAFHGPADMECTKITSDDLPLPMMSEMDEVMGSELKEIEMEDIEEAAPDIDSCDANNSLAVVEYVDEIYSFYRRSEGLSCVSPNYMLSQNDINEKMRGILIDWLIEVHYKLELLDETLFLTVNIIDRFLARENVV

T2: OsCYCOS2 aa 170-310 (Oryza sativa, UniProt A2YH60 170-310)
T2 construct: bait, Gal4 DBD fusion; also called PN20257
T2 sequence: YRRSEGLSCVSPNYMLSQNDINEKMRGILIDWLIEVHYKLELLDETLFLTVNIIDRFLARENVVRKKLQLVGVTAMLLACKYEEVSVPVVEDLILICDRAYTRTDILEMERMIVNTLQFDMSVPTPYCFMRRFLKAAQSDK

T3: OsMADS6 aa 50-200 (Oryza sativa, UniProt Q6EU39 50-200)
T3 construct: bait, Gal4 DBD fusion; also called PN20233
T3 sequence: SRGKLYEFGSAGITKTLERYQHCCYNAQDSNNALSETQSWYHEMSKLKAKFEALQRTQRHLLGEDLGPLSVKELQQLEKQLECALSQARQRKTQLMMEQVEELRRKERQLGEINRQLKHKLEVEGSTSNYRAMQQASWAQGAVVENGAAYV

B1: Os018989-4003 aa 9-179 (other)
chain: AAAASAAPGLANLLIREGAGLPSRPERYPPFRPCTSDSFAPISREGDDIPPQKKSVSLRSGGGGNAAEREEGGANRNGKKEKTGAQRITGWGLREFSKIVSKKVEAKGRTTYNEVADEIFAELKSITQNGLEFDEKNIRRRVYDAFNVLIAIRVIAKDKKEIKWMGLTNYR
notes: prey, AD fusion; also called PN21044; Hypothetical Protein 018989-4003, Similar to Triticum sp; DP Protein
B2: OsPN29958 aa 3-304 (other)
chain: QNEVSALEKQTLSLANDCLQSNKLRMEENALSTQVLKTNMRSSGDQNTVRTVKDMELQKLHGTIKALQKVVTDTAVLLDQERLDFNANLQEARKQIEVLKLKEILDDDLIEMNYEQMLKDIQLDLIQISSGNKTGSLGQANKTVAQANEKMLDSHGIVGASSSHVRNDLRPPQSESFERDNYKRPPSELMVVKELSIDKQELPRSITTEPHQEWKNKVIERLASDAQRLNALQSSIQELKTNTEASEGLELESVRYQIREAEGFITQLIDSNGKLSKKAEEFTSEDGLDGDNIDLRSRHQRK
notes: prey, AD fusion; also called Novel Protein PN29958, Fragment, centromere homologue
B3: OsPN29961 aa 10-215 (other)
chain: QKDGAPDEGSVGVPGRKTKETVTAADAIIDALDTAEEEVKRLDQHQEGQNNGNGTTFQPNVIMQGQSPSDYVLNVVSNVRPNDLEQALLSLPFSDALKIMSYLKEWSMVPLKVELVCRVCLVLLQTHHSQLTTTPSARSILTELKGILYSRVKECKDAIGFNLAAMDHIKELLAMRSDAPFRDARAKLMEIRQEQSRRSDRSDGAE
notes: prey, AD fusion; also called Novel Protein PN29961, Fragment, Similar to A. thaliana Unknown Protein BAB02349
B4: OsPN29882 aa 107-273 (other)
chain: ALMVERLEGSRQKLLMEIDSQSSEIEKLFEENSALSTSYQEAVAVTMQWENQVKDCLKQNEELRSHLEKLRLEQATLLKTSNTTIQPDGQNETSISFPPEFVTENLSLKDQLIKEQSRSEGLSAEIMKLSAELRKAVQAQNNLARLYRPVLRGIESNLMKMKQETYA
notes: prey, AD fusion; also called Novel Protein PN29882, Fragment, myosin heavy chain
B5: OsPN29968 aa 12-113 (other)
chain: LVNNEDVVAIKQMQHLILGRLQDSNAVLTHFNEYSEQCFAEVSNDFAGKTRLLKSMKADLDHIFLKLRGMKSRLAATYPDAFPTGAMAETMDQRPDLESPLD
notes: prey, AD fusion; also called Novel Protein PN29968, Similar to A. thaliana Unknown Protein BAB01990
B6: OsPN29966 aa 8-216 (other)
chain: GTISAVEQESARQIASKDAEIAFLNEKLHQFRNSGLSLSEGRDKLYEEIYNLRQQLVTLSKSLLNSEWGLSVSHYNNFEGAEDESKHRGNEKSSKDGITKENGSKGSNEDIFIDPTVLKHMDRDELVAHFNKMMNQMKRQHDSTLQEKTEEIFRLKRENLKKEGPNPWHLRNNKEFELMRKKIWEVITKLDEVLVENKRTIRIKSDVFP
notes: prey, AD fusion; also called Novel Protein PN29966, Fragment, myosin heavy chain
B7: OsPN29967 aa 16-174 (other)
chain: PPTRRALTLTLTLTLLLSLAMSEPASPPPAMPEDAAPPQPQPEPAVPAGEEAAPSLERKEELLPVEEKISELDESQSQLMGRLRGLKEDLLNWRSSLDTQVTKYKSELSDIKTALNSEIEQLRSDFQELRTTLKKQQEDVSNSLKNLGLQDATDNDGNK
notes: prey, AD fusion; also called Novel Protein PN29967, Fragment, unknown
B8: PN23136 aa 66-191 (other)
chain: LRERIHKTRQHITQLVKDTSEKLKQASEADHRVEVSASKKIADAKLAKDFQAVLKEFQKAQRLAVEREAAYAPFISQAGLPQSYNSSEVNNGADKLAEQRTALLESRRQELVFLDNEIVFNEAVIE
notes: prey, AD fusion; also called Hypothetical Protein BAA85200 Similar to Syntaxin Related Protein AtVam3p
B9: OsPN23484 aa 77-233 (other)
chain: AETATSEAMLMIERLQREKAAAQMEARQFRRYAEGREDREREVQEELASLSDLAASYHSRLQSHGIDPDSFSDDGEEEQHDEEDGEEVEQIDTAALQTDGSSGGDSIGGMQVKAMVDDDEEEQFTPVEKEFEYTVDVRCASSTTKVSGAVVVGEFMG
notes: prey, AD fusion
B10: OsPN23484 aa 90-245 (other)
chain: RLQREKAAAQMEARQFRRYAEGREDREREVQEELASLSDLAASYHSRLQSHGIDPDSFSDDGEEEQHDEEDGEEVEQIDTAALQTDGSSGGDSIGGMQVKAMVDDDEEEQFTPVEKEFEYTVDVRCASSTTKVSGAVVVGEFMGEGNAAAGGLYAR
notes: prey, AD fusion
B11: PN20815 aa 1-134 (other)
chain: MDKELKERDEKYVELDTKFQRLHKRAKQRIQDIQKEKDDMEARFNEINQKAEQASSLQSAAQQELERARQQASEALRSMDAERQQLRTVNSKLRTNLDEARVALEARNNVLEKLRQSMFEKEQLLEQTQASLQS
notes: prey, AD fusion; also called Hypothetical Protein PN20815 Similar to A. thaliana Myosin Heavy Chain, Fragment
B12: PN26210 aa 422-646 (other)
chain: IAELTAKAEEQQKLILKLEDDILKGYSSTDRRTSLLNDWDLQEIGSNEVAEGTDPRHAPQDQDQSSMLKVICNQRDRFRTRLRETEEELRRLKEKYEMLVVELEKTKADNVQLYGKIRYVQDYSHEKIVSRGPKKYAEDVESGSSDVETKYKKMYEDDINPFAAFSKKEKDQRYKELGLRDKITLSSGRFLLGNKYARTFIFFYTIGLHLLVFTLLYRMSALSYL
notes: prey, AD fusion; also called O. sativa Putative CCAAT Displacement Protein
B13: OsPN29942 aa 1-159 (other)
chain: EHESDEEKNEVDTSNEIKEIVIDDMEPKVFQAGFLFMYRDNLVGDDELSASSSDCSIFDTLAGKLLAAADRYELPRLRLLCESYLCKHISVNSVATTLALADRHHAMELKSVCLKFAAENLSAVIRTDGFDYLKDNCPALQSEILRTVAGCEEECSSGG
notes: prey, AD fusion
B14: OsPN23484 aa 64-212 (other)
chain: RELQAELDAERASAETATSEAMLMIERLQREKAAAQMEARQFRRYAEGREDREREVQEELASLSDLAASYHSRLQSHGIDPDSFSDDGEEEQHDEEDGEEVEQIDTAALQTDGSSGGDSIGGMQVKAMVDDDEEEQFTPVEKEFEYTVD
notes: prey, AD fusion
B15: OsPN30854 aa 100-169 (other)
chain: RIDVVNRQLKPLGKTCVKKEKEYKEILEAYNEKNKEKALLVNRLIELVSESERMRMKKLEELNKTVDSLY
notes: prey, AD fusion; also called Novel Protein PN30854, unknown
B16: PN26210 aa 364-613 (other)
chain: VGYNSIEAEDWELATNGEEMSKLEALLLDKNRKMEHELTQLKVKISEKSNLLEEAEKKIAELTAKAEEQQKLILKLEDDILKGYSSTDRRTSLLNDWDLQEIGSNEVAEGTDPRHAPQDQDQSSMLKVICNQRDRFRTRLRETEEELRRLKEKYEMLVVELEKTKADNVQLYGKIRYVQDYSHEKIVSRGPKKYAEDVESGSSDVETKYKKMYEDDINPFAAFSKKEKDQRYKELGLRDKITLSSGRFLL
notes: prey, AD fusion; also called Putative CCAAT Displacement Protein
B17: OsMADS15 aa 73-183 (other)
chain: YSYAEKALISAESESEGNWCHEYRKLKAKIETIQKCHKHLMGEDHESLNLKELQQLEQQLESSLKHIISRKSHLMLESISELQKKERSLQEENKALQKELVERQKNVRGQQ
notes: prey, AD fusion; also called PN20842
B18: Os008339 aa 108-226 (other)
chain: ELAETSLRLRQMRGEELHRLNVEQLQELEKSLESGLGSVLKTKSKKILDEIDGLERKRMQLIEENLRLKEQVSRMSRMEEMQPGPDSEIVYEEGQSSESVTNASYPRPPPDNDYSSDTS
notes: prey, AD fusion; also called PN20847
B19: OsMADS5 aa 61-171 (other)
chain: SCMYKTLERYRSCNYNLNSCEASAALETELSNYQEYLKLKTRVEFLQTTQRNLLGEDLVPLSLKELEQLENQIEISLMNIRSSKNQQLLDQVFELKRKEQQLQDANKDLKR
notes: prey, AD fusion; also called PN20770
B20: OsBAA81880 aa 120-228 (other)
chain: IDELQQLEKNLEAGLHRVMLTKDQQFMEQISELQRKSSQLAEENMQLRNQVSQISPAEKQVVDTENFVTEGQSSESVMTALHSGSSQSQDNDDGSDVSLKLGLPCGAWK
notes: prey, AD fusion; also called PN20837
B21: OsMADS18 aa 64-249 (other)
chain: EGILERYQRYSFDERAVLEPNTEDQENWGDEYGILKSKLDALQKSQRQLLGEQLDTLTTKELQQLEHQLEYSLKHIRSKKNQLLFESISELQKKEKSLKNQNNVLQKLMETEKEKNNAIINTNREEQNGATPSTSSPTPVTAPDPIPTTNNSQSQPRGSGESEAQPSPAQAGNSKLPPWMLRTSHT
notes: prey, AD fusion; also called PN20912
B22: OsMADS7 aa 95-259 (other)
chain: RESEQLKASRNEYLKLKARVENLQRTQRNLLGPDLDSLGIKELESLEKQLDSSLKHVRTTRTKHLVDQLTELQRKEQMVSEANRCLRRKLEESNHVRGQQVWEQGCNLIGYERQPEVQQPLHGGNGFFHPLDAAGEPTLQIGYPAEHHEAMNSACMNTYMPPWLP
notes: prey, AD fusion; also called PN21116
B23: OsFDRMADS8 aa 91-233 (other)
chain: KDDTLGLAKKLEALDESRRKILGENLEGCSIEELRGLEMKLEKSLHNIRLKKTELLERQIAKLKEKERTLLKDNENLRGKHRNLEAAALVANHMTTTTAPAAWPRDVPMTSSTAGAADAMDVETDLYIGLPGTERSSNRSETG
notes: prey, AD fusion; also called PN20698

molecular target: T4, OsE2F1 aa 100-250 (Oryza sativa); assay: Y2H; output trait library
T4 construct: bait, Gal4 DBD fusion; also called PN19758; O. sativa E2F Homolog
T4 sequence (chain, as listed by the source): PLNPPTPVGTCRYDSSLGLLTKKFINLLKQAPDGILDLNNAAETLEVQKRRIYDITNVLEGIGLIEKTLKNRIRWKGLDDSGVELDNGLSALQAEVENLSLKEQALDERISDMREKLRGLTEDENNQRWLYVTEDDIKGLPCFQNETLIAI
Method in brief: (§1)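 A rice prey library, either the input trait or the output trait library, was screened with a bait clone encoding a defined amino-acid fragment of a rice protein. Screening used an automated, high-throughput yeast two-hybrid assay provided by Myriad Genetics Inc. (Salt Lake City, Utah). Retrieved prey clones had their encoding sequences compared by BLAST against databases so the interacting proteins could be identified.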

Binding result, binds:
B1

Molecular target: T1, OsCYCOS2 aa 50-233
Assay: Y2H; output trait library
Method in brief: as §1

Binding result, binds:
B2
B3
B4
B5
B6
B7
B8

molecular target: T2, OsCYCOS2 aa 170-310; assay: Y2H; output trait library
Method in brief: as §1

Binding result, binds:
B9
B10
B11
B12
B13
B14
B15
B16

molecular target: T3, OsMADS6 aa 50-200; assay: Y2H; output trait library
Method in brief: as §1

Binding result, binds:
B17
B18
B19
B20
B21
B22
B23
